According to paper PMC2937569 (Biochemistry, 2010):
Where a chain is given by its changes, count along the chain named. In names and notes the source's numbering stands.

B1: wild-type (WT) RDS (retinal degeneration slow; Peripherin/rds), recombinant in COS-1 cells (natural protein, murine, UniProt P15499 1-346, looked up)
chain: MALLKVKFDQKKRVKLAQGLWLMNWLSVLAGIVLFSLGLFLKIELRKRSEVMNNSESHFVPNSLIGVGVLSCVFNSLAGKICYDALDPAKYAKWKPWLKPYLAVCIFFNVILFLVALCCFLLRGSLESTLAYGLKNGMKYYRDTDTPGRCFMKKTIDMLQIEFKCCGNNGFRDWFEIQWISNRYLDFSSKEVKDRIKSNVDGRYLVDGVPFSCCNPSSPRPCIQYQLTNNSAHYSYDHQTEELNLWLRGCRAALLNYYSSLMNSMGVVTLLVWLFEVSITAGLRYLHTALESVSNPEDPECESEGWLLEKSVPETWKAFLESFKKLGKSNQVEAEGADAGPAPEAG
B2: N244K RDS, recombinant in COS-1 cells (natural protein, murine, UniProt P15499 1-346, looked up)
chain: B1 chain with N244K
B3: N244H RDS, recombinant in COS-1 cells (natural protein, murine, UniProt P15499 1-346, looked up)
chain: B1 chain with N244H

Legend:
[1] = target: the molecule itself; test: non-reducing SDS-PAGE/Western blot
[2] = target: the molecule itself; test: velocity sedimentation on a sucrose gradient

| Protein | stoichiometry N [1] | stoichiometry N [2] |
| --- | --- | --- |
| B1 | 2 | 4 |
| B2 |  | 4 |
| B3 | 2 | 4 |
